# Article PMC3518592 (Structure (London, England : 1993), 2012)
# Tests used:
# ubiquitin (D77) [1] = target: T1, ubiquitin (D77) (UniProt P0CG48 1-76, D77); assay: ITC
# ubiquitin (D77) [2] = target: T1, ubiquitin (D77); assay: NMR titration
# ubiquitin (D77) [3] = target: T1, ubiquitin (D77); assay: ITC; remark: listed apart in the source
binder,measurement,setting,value
"gp78CUE domain (453–504) (domain or fragment, human, UniProt Q9UKV5 453-504, looked up) SNSQLNAMAHQIQEMFPQVPYHLVLQDLQLTRSVEITTDNILEGRIQVPFPT",dH,ubiquitin (D77) [1],-3.418 ± 0.0239 kcal/mol
same,stoichiometry N,ubiquitin (D77) [1],0.91
same,Kd,ubiquitin (D77) [2],13.6 ± 12 µM
same,Kd,ubiquitin (D77) [3],12.8 ± 0.7 µM
